Results as given in the DeepSol protein solubility set.

experiment: soluble on expression in E. coli; label from the status in PepcDB or PDB records

Row | Sequence | soluble on expression in E. coli
1 | MSYYHHHHHHDYDIPTTENLYFQGAMGSGIPMSLPGSTHSTAAELTGPSLVEVLRARPWFEEPPKAVELEGLAACEGEYSQKYSTMSPLGSGAFGFVWTAVDKEKNKEVVVKFIKKEKVLEDCWIEDPKLGKVTLEIAILSRVEHANIIKVLDIFENQGFFQLVMEKHGSGLDLFAFIDRHPRLDEPLASYIFRQLVSAVGYLRLKDIIHRDIKDENIVIAEDFTIKLIDFGSAAYLERGKLFYTFCGTIEYCAPEVLMGNPYRGPELEMWSLGVTLYTLVFEENPFCELEETVEAAIHPPYLVSKELMSLVSGLLQPVPERRTTLEKLVTDPWVTQPVNLADYTWEEVCRVNKPESGVLSAASLEMGN | soluble
2 | MSYYHHHHHHDYDIPTTENLYFQGAMGSMNTRNTRSKQRAPCGVSSSVKPRLDLIEQAPNPVYDRHPACITLPERTCRHPLTDLEANEQLGRCEDSVKNRFDRVIPFLQVVAGIPLGLDHVTRVQELAQSSLGHTLPEELLKDNWISGHNLKGIFGYATAKALTAATEQFSRKIMSEKDDSASAIGFFLDCGFHAVDISPCADGRLKGLLPYILRLPLTAFTYRKAYAGSMFDIEDDLAQWEKNELRRYREGVPNTADQPTRYLKIAVYHFSTSDPTHSGCAAHGSNDRAALEAALTQLMKFREAVENAHCCGASIDILLIGVDTDTDAIRVHIPDSKGFLNPYRYVDNTVTYAQTLHLAPDEARVIIHEAILNANRSDGWAKGNGVASEGMRRFIGQLLINNLSQIDYVVNRHGGRYPPNDIGHAERYISVGDGFDEVQIRNLAYYAHLDTVEENAIDVDVGITIFTKLNLSRGLPIPIAIHYRYDPNVPGSRERTVVKARRIYNAIKERFSSLDEQNLLQFRLSVQAQDIGSPIEEVASA | soluble
3 | MTAGFNFNNYAAGFCSATPALRGNEVNMDTLNLGNNESLVCGVFPNQDGTFTAMTYTKSKTFKTEAGARRWLARNTD | soluble
4 | MTALTIKDLRYKHNQRMILQNVQLTLAPSKIVGLLGENGAGKTTLMRLITGSAKGQGSIVINGATTAVARKQQVSFTDHLTGFSAGMKLQQIAQFYQLVYPDFDAKRYQELVDFLELNQQQKLGELSKGTREKLIIALTLSRKVALYLLDEPFSGIDSMSRKKIINSIIKWTPAEATLLISDHYVTEIAPILDEIVVVKDQTIVVHQGADEIRDEHGMELEDYYESLYMGGVTDDK | not soluble
5 | MTAPSLLIAGCGDIGSRLATRLLPHGWTVHGLRRTVSELPAGVHGVAGDLFDTRKPALWPAAALDYVVYCATPSKRDEAGYRMAYVEGLRNVLSWLEQTGQRPKRLIFVSSSGVYGQQNGEWVDEDSITEPANYTGTVMLEAEQLALNSGLPATAVRLTGIYGPGRSDLSNRVRQGHSVRIDPPVYANRIHADDAASLLEHLLQADQRGVALESCYLGVDDDPAALADVVAWIREYLGVTEWSEEVSVQRVGSKRCSNARARALGWTPMYPDYRAGYAALLG | not soluble
6 | MTARVAGQAVGGQILVGEPVHDAVSDCADIRFGSYRLFSLDAAPGPDLD | not soluble
7 | MTASDYEWQPDILGKDFQQLVIPLGADPISEGGEDDIFATLVRYAPADQPTPTSRPAVLFVHGMTDYFFQRHVAQWFHQHGFSVYALDLRKCGRSHRNNQSWHYISDISRYFEELDRAKSIIEELHPTIFPIGHSTGGLILAHWLDGLRQCETLHPTIPGAILNSPWLDMMTPATVTRALRPILTRAARRFPHASFGRSKEGTYGRSLHASRSGEWDYDISFKPLTGHLRKLGWLHAIDTAQSLVHNDAVDCGIPLLMLCSDHSSLRGKFSPRAQVTDTVLDVEQMKRWAPHLSEYVSVCTIRGAVHDVYLSQKPARLQALETSVRWMNRILSEHTI | not soluble
8 | MTDCCPGFGSVAKYIAVSVREASFDVRSMAATSTCIFVLEVMGRHAGWIAAAGGLASDERHELALVILFPEQVFDPERFLRAVDEKVRSHGYCSVVVSEGIRGADGRFVAESGSRDVFGHARLGGVAPVIADLIKERLGYKYHWAVADYLQRAARHIALEHHHHHH | not soluble
9 | MTDEKKKGVIFDIQRWSLHDGPGIRTNVFFKGCPLSCQWCSNPESQEFCREPALFGDKCIHCLSCVEHCPHGAIHTSDPWIRLDYEICRGRCSRGAEQENAFCCTKACYAQALTVMGEVMTADMVLEEVMRDEGIYRSSGGGVTMTGGEPLAQPEFLLELLTAAKERGLHTVMESSMFAEWDKIQACLPYLDVLFMDMKLLPEEKHVKYTGVSNQIILDNIRRAAAYARTHRLELAVRTPVIPGINDTSGDIAAMADWIKKHLPGVERYELLPYHRLGRGKYRNIGREYQLGDIVPPSKEKMKELEAVVSKLGLRRE | not soluble
10 | MTDKKTTEKKETETAATFTEELTAVLEEIKEEPVKEKKKGEIVTIVNETDIQIGEREYRIVKNHRDAFDPERLGERFSEVLARYDYIVGDWGYEQLRLRGFFDTSNRRAAPDQRIDTLEDYLYEYCNFGCAYFVIERTGERKEKTTHRRRRHKKNNRSNAFVEEKSAPANKNSKPVIRTRKEENKKTTTPKQPSPKKSGKGFTIRQREELEHHHHHH | soluble
11 | MTDKPTYEQTLRGNAIRAISACDLDEKVRLARETASRWFARALSVRSPLDPPLPERPGRPEKPELVPPRMLKKRSLNTEHGRIALMHALAHIELNAIDLALDIVARFAVKPIPRSFFDGWMKVADDEARHFTLLRNRLKSLGADYGDMPAHDGLWQSAHQTRNDLEARLAVVPLILEARGLDVTPSLLEKMIETGDHETAAILNIIYNDEKTHVAVGAKWFRFFCARNRIDPAARFRELVRANFRGELKPPFNELARAEAGLTPSFYRSLSPVSILEHHHHHH | not soluble
12 | MTDNNKYRDVEIRAPRGNKLTAKSWLTEAPLRMLMNNLDPQVAENPKELVVYGGIGRAARNWECYDKIVETLTRLEDDETLLVQSGKPVGVFKTHSNAPRVLIANSNLVPHWANWEHFNELDAKGLAMYGQMTAGSWIYIGSQGIVQGTYETFVEAGRQHYGGSLKGKWVLTAGLGGMGGAQPLAATLAGACSLNIESQQSRIDFRLETRYVDEQATDLDDALVRIAKYTAEGKAISIALHGNAAEILPELVKRGVRPDMVTDQTSAHDPLNGYLPIGWTWEQYRDRAQTIPAAVVKAAKASMAVHVQAMLDFQKQGVPTFDYGNNIRQMAKEEGVANAFDFPGFVPAYIRPLFCRGVGPFRWAALSGEAEDIYKTDAKVKELIPDDAHLHRWLDMARERISFQGLPARICWVGLGLRAKLGLAFNEMVRSGELSAPVVIGRDHLDSGSVSSPNRETEAMRDGSDAVSDWPLLNALLNTAGGATWVSLHHGGGVGMGFSQHSGMVIVCDGTDEAAERIARVLTNDPGTGVMRHADAGYDIAIDCAKEQGLDLPMITG | soluble
13 | MTDVEKPVDNSGTLIDDILSPLKGVNEDLNVLVLGGDKVNNNTDTMMLVNFKPSTSKVSILSIPRDTKVKINGKKAKINSAYPTGGGELAVQTVSELFGIDVKYYVFVDTSSFRKIIDILGGVDYYVPVDMDYDDPLQGLSIHIKKGQHHFDGAMAEKFMRFRQYNNGRVNEYYDGSDLKRIDAQQNFIRELVRQKLNIFYLTKVDDIASTIFSNIDTNLNMSEVLKLTGSVSKVQADSINMLKVPGKSVLDGAWYYVIDSQETDKIINEYFRTRYKLEHHHHHH | soluble
14 | MTDVKTQNAISLKGSAQLVKEFFHFGLNSILYQRALYPSDSFKREKKYGLTLWVAHEKKLQAFMDPLLQQVEYWLAKRQLKRLVMVISEVKTKEVVERWQFDIHTENLAEEGYEIV | not soluble
15 | MTDYLNVGKIVNTQGIKGEVRVISKTDFPEERYQKGAMLLLFQEKKAPIELVVKSHRKHKNFDILSFEGHPNINDVEKYRDGILKVAKDNLAELAEDEFYYHQIIGATVYDETGSELGKIKEILSPGANDVWVVQRPKKKDLLLPYIEGVVTKVDVENQRIDVDIPEGLIDDENLEHHHHHH | soluble
16 | MTEDALNRIADALERMAPAPLRAPDFAVAPAFVWHVAPERLEPVRDVNRVDLDLLVGINRARDTLLDNTRRFAAGHGANNALLWGARGMGKSSLVKAVHGALQPEFPNLKLVELQREDLPSVARLLNHLRAAPERFILFCDDLSFSHDDQHYKSLKAVLDGGIEGRPENVVFYATSNRRHLMPRDMIENERSSAINPSEAVEEKVSLSDRFGLWLGFHPCDQDEYLAMIDGYCAAYGVSVAPDTLRAEAIEWQATRGARSGRVAWQFFTDLAGRQGIALRLEHHHHHH | soluble
17 | MTEDEWEKQSSFVPVNADPLSPYTEKVKTLAAHRLDFHIRENLRLGVGELTMIGGKYPDLFAVSPFSIWHNNYNEGYTNSMASFDFSWVPKKGFEVHGEFVLDDLVGTTENESKPTAYAFNVGVRRALSTGSLKGVLGVEYALATKFVYNTFLPYLKFNNRIVYLTNLPSSRTIVDYPVGFAFGPDAKLLNVSFDLFKENVSLETDFFYLVKGPNTLYTEYPTAEEGETKTIFGASLRGKIGHVSFSLLFSGSEFLAGLGIEFGF | not soluble
18 | MTEEFNESMINDIKEGDKVTGEVQEIEEKQVIVAVNGAKFNGIIPISQLSTHHIDNPSDAVKVGDEIGAYVTKVEYDEENETGAYILSKRQLETEKSYEFLQEQLDNNQTIEAKVTEVVKGGLVVDVGQRGFVPASLISTDFIEDFSDFEGQVLKLKVEELDPANNRVILSRKAVEALENAEKKDELLESLNEGDVIEGKVARLTNFGAFVDIGGVDGLVHVSELSHEHVKSPEDVVSIGETVNVKIKSVDKDSERISLSIKDTLPSPFESIKGEFNEGDVIEGTVVRLANFGAFVEIKPGVQGLVHISEISHSHIGSPSEALEPGQVVSVKVLGVDVENERISLSIKATLPNENVIESDSETTQSYLDNGSDDEDNPTLGDVFGDKLKDFKFLEHHHHHH | soluble
19 | MTEEFNESMINDIKEGDKVTGEVQQVEDKQVVVHINGGKFNGIIPISQLSTHHIDSPSEVVKEGDEVEAYVTKVEFDEENETGAYILSRRQLETEKSYSYLQEKLDNNEIIEAKVTEVVKGGLVVDVGQRGFVPASLISTDFIEDFSVFDGQTIRIKVEELDPENNRVILSRKAVEQEENDAKKDQLLQSLNEGDVIHGKVARLTQFGAFIDIGGVDGLVHVSELSHEHVQTPEEVVSIGQDVKVKIKSIDRDTERISLSIKDTLPTPFENIKGQFHENDVIEGVVVRLANFGAFVEIAPGVQGLVHISEIAHKHIGTPGEVLEPGQQVNVKILGIDEENERVSLSIKATLPNEDVVESDPSTTKAYLENEEEDNPTIGDMIGDKLKNLKLLEHHHHHH | soluble
20 | MTEFDNLTWLHGKPQGSGLLKANPEDFVVVEDLGFTPDGEGEHILLRILKNGCNTRFVADALAKFLKIHAREVSFAGQKDKHAVTEQWLCARVPGKEMPDFSAFQLEGCKVLEYARHKRKLRLGALKGNAFTLVLREISDRRDVETRLQAIRDGGVPNYFGAQRFGIGGSNLQGALRWAQSNAPVRDRNKRSFWLSAARSALFNQIVHQRLKKPDFNQVVDGDALQLAGRGSWFVATSEELPELQRRVDEKELMITASLPGSGEWGTQRAALAFEQDAIAQETVLQSLLLREKVEASRRAMLLYPQQLSWNWWDDVTVELRFWLPAGSFATSVVRELINTMGDYAHIAE | not soluble
21 | MTEFTPFFDGSNQLNYLKFVILRFHGVSKRKICKMYNFAYFRILEVCEMAKKNDYRFTYKDYKFLKQYGVSNTFICKMYHISIEDLEFFEVMNR | not soluble
22 | MTEKSIDLSVDIAGLRLSNPVIAASGTFGFGREFVDYVDLNKIGGISVKGLTLEKRQGNRPPRIAETPAGILNSVGLQNPGVRAFIENEIPFLRKYNTKIIANIAGNTIEDYCKMAELLSDADIDAIELNVSCPNVKKGCVAFGNSPAGISEITSKVKKYCKKPLIVKLTPNVTDIKEIAVAAEAAGADALSLINTILGMAIDIHRKRPILANNVGGLSGPAVKPIAVRMVYEVCSVVKIPVIGMGGISSGEDAVEFMLAGASAVMVGTANFINPAACIDVVEGIKNYLKMYNHGSVYEIIGKLQLN | not soluble
